The results in this text go back to the MegaScale stability set (Tsuboyama et al. 2023).

B1: EEHEE_rd4_0763 (parent)
chain: LTVHVGNVTYHFDNPEQAEEWAKRMAKKYQGQIHVKDGQFRIE
B2: 2K2A (parent)
chain: ELREAFRLYDKEGNGYISTDVMREILAELDETLSSEDLDAMIDEIDADGSGTVDFEEFMGVMT

In one series the parent is B1. Description: folding stability dG (cDNA display proteolysis); higher = more stable. The note with it: PBS, room temperature.
Regarding LTVHVGNVTYHFDNPEQAEEWAKRMAKKYQGQIHQKDGQFRIE [V35Q], the “folding stability dG” value was 1.2 kcal/mol.

Regarding LTVQVGNVTYHFDNPEQAEEWAKRMAKKYQGQIHVKDGQFRIE [H4Q], the “folding stability dG” value worked out at 1.72 kcal/mol. On to LTVHVGNVTYHFDNPEQAEEWAKRMAKKYQHQIHVKDGQFRIE [G31H], for which the “folding stability dG” value was found to be 1.46 kcal/mol.

With LTVHVGNVTYHFDNPEQAEEWIKRMAKKYQGQIHVKDGQFRIE [A22I], the “folding stability dG” value was 1.4 kcal/mol.

The variants in another series derive from B2. Described as above. Conditions: PBS, room temperature.
In the case of YLREAFRLYDKEGNGYISTDVMREILAELDETLSSEDLDAMIDEIDADGSGTVDFEEFMGVMT [E1Y], the “folding stability dG” value was found to be 2.41 kcal/mol. ILREAFRLYDKEGNGYISTDVMREILAELDETLSSEDLDAMIDEIDADGSGTVDFEEFMGVMT [E1I]: the “folding stability dG” value was 2.02 kcal/mol. On the same count and under the same terms, the figure for KLREAFRLYDKEGNGYISTDVMREILAELDETLSSEDLDAMIDEIDADGSGTVDFEEFMGVMT [E1K] is 2.27 kcal/mol; for GLREAFRLYDKEGNGYISTDVMREILAELDETLSSEDLDAMIDEIDADGSGTVDFEEFMGVMT [E1G] it is 2.03 kcal/mol. For the variant TLREAFRLYDKEGNGYISTDVMREILAELDETLSSEDLDAMIDEIDADGSGTVDFEEFMGVMT [E1T], the “folding stability dG” value is 2.21 kcal/mol. Take PLREAFRLYDKEGNGYISTDVMREILAELDETLSSEDLDAMIDEIDADGSGTVDFEEFMGVMT [E1P]: the “folding stability dG” value was determined as 1.84 kcal/mol. For VLREAFRLYDKEGNGYISTDVMREILAELDETLSSEDLDAMIDEIDADGSGTVDFEEFMGVMT [E1V], the “folding stability dG” value amounted to 1.98 kcal/mol. With HLREAFRLYDKEGNGYISTDVMREILAELDETLSSEDLDAMIDEIDADGSGTVDFEEFMGVMT [E1H], the “folding stability dG” value is 2.1 kcal/mol. ALREAFRLYDKEGNGYISTDVMREILAELDETLSSEDLDAMIDEIDADGSGTVDFEEFMGVMT [E1A]: the “folding stability dG” value worked out at 2.29 kcal/mol.

In the case of DLREAFRLYDKEGNGYISTDVMREILAELDETLSSEDLDAMIDEIDADGSGTVDFEEFMGVMT [E1D], the “folding stability dG” value was found to be 2.41 kcal/mol. Consider SLREAFRLYDKEGNGYISTDVMREILAELDETLSSEDLDAMIDEIDADGSGTVDFEEFMGVMT [E1S], for which the “folding stability dG” value turned out to be 2.28 kcal/mol.

Turning to QLREAFRLYDKEGNGYISTDVMREILAELDETLSSEDLDAMIDEIDADGSGTVDFEEFMGVMT [E1Q], the “folding stability dG” value came to 2.08 kcal/mol.

On to NLREAFRLYDKEGNGYISTDVMREILAELDETLSSEDLDAMIDEIDADGSGTVDFEEFMGVMT [E1N], for which the “folding stability dG” value was determined as 2.25 kcal/mol. As to WLREAFRLYDKEGNGYISTDVMREILAELDETLSSEDLDAMIDEIDADGSGTVDFEEFMGVMT [E1W], the “folding stability dG” value turned out to be 2.65 kcal/mol.

Take RLREAFRLYDKEGNGYISTDVMREILAELDETLSSEDLDAMIDEIDADGSGTVDFEEFMGVMT [E1R]: the “folding stability dG” value came to 2.25 kcal/mol. Same read-out and setting: the figure for LLREAFRLYDKEGNGYISTDVMREILAELDETLSSEDLDAMIDEIDADGSGTVDFEEFMGVMT [E1L] is 2.19 kcal/mol; for MLREAFRLYDKEGNGYISTDVMREILAELDETLSSEDLDAMIDEIDADGSGTVDFEEFMGVMT [E1M] it is 2.02 kcal/mol. As for FLREAFRLYDKEGNGYISTDVMREILAELDETLSSEDLDAMIDEIDADGSGTVDFEEFMGVMT [E1F], the “folding stability dG” value turned out to be 2.36 kcal/mol. Take ELDEAFRLYDKEGNGYISTDVMREILAELDETLSSEDLDAMIDEIDADGSGTVDFEEFMGVMT [R3D]: the “folding stability dG” value was found to be 1.62 kcal/mol. As for ELEEAFRLYDKEGNGYISTDVMREILAELDETLSSEDLDAMIDEIDADGSGTVDFEEFMGVMT [R3E], the “folding stability dG” value is 2.16 kcal/mol. For ELAEAFRLYDKEGNGYISTDVMREILAELDETLSSEDLDAMIDEIDADGSGTVDFEEFMGVMT [R3A], the “folding stability dG” value was determined as 1.99 kcal/mol. In the case of ELLEAFRLYDKEGNGYISTDVMREILAELDETLSSEDLDAMIDEIDADGSGTVDFEEFMGVMT [R3L], the “folding stability dG” value was 2.2 kcal/mol. ELHEAFRLYDKEGNGYISTDVMREILAELDETLSSEDLDAMIDEIDADGSGTVDFEEFMGVMT [R3H]: the “folding stability dG” value amounted to 1.71 kcal/mol. For the variant ELGEAFRLYDKEGNGYISTDVMREILAELDETLSSEDLDAMIDEIDADGSGTVDFEEFMGVMT [R3G], the “folding stability dG” value is 1.48 kcal/mol. ELFEAFRLYDKEGNGYISTDVMREILAELDETLSSEDLDAMIDEIDADGSGTVDFEEFMGVMT [R3F]: the “folding stability dG” value came to 2.11 kcal/mol. On the same count and under the same terms, next, ELKEAFRLYDKEGNGYISTDVMREILAELDETLSSEDLDAMIDEIDADGSGTVDFEEFMGVMT [R3K]: 1.86 kcal/mol; ELIEAFRLYDKEGNGYISTDVMREILAELDETLSSEDLDAMIDEIDADGSGTVDFEEFMGVMT [R3I]: 1.99 kcal/mol. Take ECREAFRLYDKEGNGYISTDVMREILAELDETLSSEDLDAMIDEIDADGSGTVDFEEFMGVMT [L2C]: the “folding stability dG” value amounted to 2.73 kcal/mol. Still for that read-out and setting: next, EVREAFRLYDKEGNGYISTDVMREILAELDETLSSEDLDAMIDEIDADGSGTVDFEEFMGVMT [L2V]: 1.14 kcal/mol. Still for that read-out and setting: next, EPREAFRLYDKEGNGYISTDVMREILAELDETLSSEDLDAMIDEIDADGSGTVDFEEFMGVMT [L2P]: 0.726 kcal/mol; EYREAFRLYDKEGNGYISTDVMREILAELDETLSSEDLDAMIDEIDADGSGTVDFEEFMGVMT [L2Y]: 1.96 kcal/mol. As to EMREAFRLYDKEGNGYISTDVMREILAELDETLSSEDLDAMIDEIDADGSGTVDFEEFMGVMT [L2M], the “folding stability dG” value came out at 1.74 kcal/mol. Take ESREAFRLYDKEGNGYISTDVMREILAELDETLSSEDLDAMIDEIDADGSGTVDFEEFMGVMT [L2S]: the “folding stability dG” value worked out at 0.529 kcal/mol. Take EFREAFRLYDKEGNGYISTDVMREILAELDETLSSEDLDAMIDEIDADGSGTVDFEEFMGVMT [L2F]: the “folding stability dG” value is 1.88 kcal/mol.

On to EIREAFRLYDKEGNGYISTDVMREILAELDETLSSEDLDAMIDEIDADGSGTVDFEEFMGVMT [L2I], for which the “folding stability dG” value came out at 1.51 kcal/mol.

For EDREAFRLYDKEGNGYISTDVMREILAELDETLSSEDLDAMIDEIDADGSGTVDFEEFMGVMT [L2D], the “folding stability dG” value came to 0.869 kcal/mol. Still for that read-out and setting: next, EEREAFRLYDKEGNGYISTDVMREILAELDETLSSEDLDAMIDEIDADGSGTVDFEEFMGVMT [L2E]: 0.678 kcal/mol; EWREAFRLYDKEGNGYISTDVMREILAELDETLSSEDLDAMIDEIDADGSGTVDFEEFMGVMT [L2W]: 2.66 kcal/mol; ETREAFRLYDKEGNGYISTDVMREILAELDETLSSEDLDAMIDEIDADGSGTVDFEEFMGVMT [L2T]: 0.594 kcal/mol. Take EQREAFRLYDKEGNGYISTDVMREILAELDETLSSEDLDAMIDEIDADGSGTVDFEEFMGVMT [L2Q]: the “folding stability dG” value was 0.705 kcal/mol. On to EHREAFRLYDKEGNGYISTDVMREILAELDETLSSEDLDAMIDEIDADGSGTVDFEEFMGVMT [L2H], for which the “folding stability dG” value came out at 1.16 kcal/mol.

Take ENREAFRLYDKEGNGYISTDVMREILAELDETLSSEDLDAMIDEIDADGSGTVDFEEFMGVMT [L2N]: the “folding stability dG” value amounted to 0.689 kcal/mol. Still for that read-out and setting: next, EKREAFRLYDKEGNGYISTDVMREILAELDETLSSEDLDAMIDEIDADGSGTVDFEEFMGVMT [L2K]: 0.383 kcal/mol; EGREAFRLYDKEGNGYISTDVMREILAELDETLSSEDLDAMIDEIDADGSGTVDFEEFMGVMT [L2G]: 0.65 kcal/mol; EAREAFRLYDKEGNGYISTDVMREILAELDETLSSEDLDAMIDEIDADGSGTVDFEEFMGVMT [L2A]: 1.23 kcal/mol. As to ERREAFRLYDKEGNGYISTDVMREILAELDETLSSEDLDAMIDEIDADGSGTVDFEEFMGVMT [L2R], the “folding stability dG” value amounted to 0.34 kcal/mol.
